# “Also recorded” adds a separate entry of the source.
# How the values were obtained:
# [1] = ECM specificity binding test, hyaluronic acid coating; conditions: 5.0 mg/ml peptide, FIG. 4
# Procedure: (§1) Peptides were incubated 24 hours at 37° C. on collagens I-IV, elastin, hyaluronic acid, and Geltrex. Coatings (10 pig/cm^2) were previously dried overnight in milli-Q water. Overall significance was assessed using analysis of variance, with Tukey's multiple comparison post-hoc analysis between ECM groups where n=4.
# (§2) Hyaluronic acid, collagens I, II, III, and IV, elastin, and Geltrex were coated onto 96-well black plates (medium binding affinity) at 10 μg/cm^2 and were dried in milli-Q water at room temperature. N-termini biotinylated peptides were added to coated plates at 0, 1, 2.5, 5 and 10 mg/ml overnight at 37° C. in phosphate buffered saline (PBS), pH 7.4, after which the plates were washed three times with PBS. Fluorescent streptavidin-488 (4 μg/mL) was added to each well and incubated at 37° C. temperature for 24 hours, then thoroughly washed with PBS. The plates were read with a fluorescence microplate reader for fluorescence intensity (Ex 490 nm, Em 525 nm). All data were normalized to the background fluorescence intensity of Streptavidin-488.
# [2] = tested on: extracellular matrix (ECM) components: Collagen type I, II, III and IV, elastin, hyaluronic acid and Geltrex; assay: ECM specificity binding test, whole panel; conditions: 5.0 mg/ml peptide, FIG. 4
# Procedure: as §1, §2
# [3] = Concentration-dependent peptide binding to hyaluronic acid coating (biotin-streptavidin fluorescence)
# Procedure: Peptides were incubated 24 hours at 37° C. Coatings (10 μg/cm^2) were previously dried overnight in milli-Q water. Overall significance was assessed using analysis of variance, with Tukey's multiple comparison post-hoc analysis between 1-scrm and experimental groups where n=4.
# N-termini biotinylated peptides were added to coated plates at 0, 1, 2.5, 5 and 10 mg/ml overnight at 37° C. in phosphate buffered saline (PBS), pH 7.4, after which the plates were washed three times with PBS.
# [4] = 1H NMR of supernatant of peptide-hyaluronic acid mixtures (loss of HA and peptide from solution); format: binding; conditions: 5 mg/mL HA
# Procedure: FIGS. 7A-7C show Nuclear magnetic resonant (NMR) proton spectra of representative (i) hyaluronic acid peaks and (ii) biotinyl peptide peaks and for (FIG. 7A) mPEP35, (FIG. 7B) 1-scrm, and (FIG. 7C) 17x-3 in 25 mM sodium acetate buffer at pH 5.2. Samples represent supernatant (soluble component) of mixtures with 5 mg/mL HA in variable peptide mixture of 1.25, 2.5. and 5 mg/mL.
# Peptides and HA were suspended in 25 mM sodium acetate buffer (pH 5.2), made up from 19 mM sodium acetate-d3, 6 mM acetic acid-d4, 10% D2O, and 1 mg/ml DSS-D6. All samples were centrifuged at 21,000 G to remove precipitate and the supernatant was collected for analysis, as only the liquid suspension could be used. NMR spectra were collected on an Avance NEO 600 MHz spectrometer at 298K with excitation sculpting used to suppress the water signal. Number of scans and receiver gain were identical for all NMR spectra.
# As higher peptide binding was accompanied by apparent gel-like structure on the substrate, the binding event may be characterized by the change in concentration of either peptide or HA remaining in the solution. ^1H NMR is an ideal method for measuring changes in concentration in solution. It provides atom-specific information that can be used to distinguish signals of biotinylated peptides (6.4 ppm) from those of hyaluronic acid (3.5 ppm) as presented in FIG. 7. Sodium acetate (pH 5.2) was chosen as the buffer since it provides better spectral quality of the amide signals than pH 7.4 buffer. Focus was placed on characterizing the binding of mPEP35, 1-scrm, and 17x-3, which reflect a positive control, a negative control, and a potent binder, respectively. Measurements were taken after centrifugation to remove gel that formed when peptide and HA are mixed. It should be noted that only HN peaks of the peptide show slight chemical shift perturbation upon addition of HA.
# [5] = Circular dichroism (CD) of peptides; format: physicochemical; conditions: 20 mM Sodium Cacodylate; for Ellipticity ratio (222 nm/208 nm) / Ellipticity 208 nm / Ellipticity 222 nm: 1.25 mg/mL; for Ellipticity 208 nm / Ellipticity 222 nm: CD data given as [θ]M×10^−3; for wavelength Minimum of CD profile: 5.0 mg/mL
# Procedure: Data is presented in ellipticity ([θ]M×10^−3) as a function of spectral wavelength (λ).
# Sodium cacodylate (SC), 20 mM pH 7.4, without and with 20% TFE was used to reduce phosphate related background signal and enhance detected structures. Circular dichroism (CD) data were collected in millidegrees, 0, and converted to molar ellipticity, [θ]M, and are expressed in units of deg×cm^2×dmol^−1. Scan speeds and digital integration times were 500 nm/min and 1 second, respectively. The data on the Y axis of the CD plots is [θ]M×10^−3. […] Consequently, CD signals are reported in the 190-260 nm range.
# [6] = Transmission electron microscopy (TEM) of peptide nanostructures; format: physicochemical
# Procedure: The sample and stain were filter-dried in between steps. Samples were collected 24 hours at 37° C. after 30 minutes of sonication. All TEM was performed on a Philips FEI Technai Spirit G2 electron microscope. Peptides were incubated in both PBS and SC.
sequence,measurement,setting,value
"KTKATVLIKNKQKSKNALKQKIVLLSK [Peptide 17x-3, de novo designed peptide with five B(X7)B domains]",binding to hyaluronic acid in specificity testing,[1],binds primarily
same,binding to the ECMs (for 17x-3: the ECMs other than hyaluronic acid),[2],does not bind significantly
same,specificity of binding to ECMs,[2],high specificity
same,binding to hyaluronic acid with increasing concentrations of peptide (fluorescence intensity),"[3]; 0-10 mg/ml peptide, PBS pH 7.4, 37° C., HA coating 10 μg/cm^2, FIG. 3",increases dramatically
same,HA binding compared to mPEP35,[3]; higher concentrations (5-10 mg/ml),significantly stronger binder
same,"HA binding, overall assessment",[3]; summary and discussion statements,proficient and specific binders; also recorded: HA specific and robust binders
same,HA spectra retained,[4]; 1.25 mg/mL peptide,~80%
same,HA spectra / removal of HA from solution,[4]; 2.5 and 5 mg/mL peptide,nearly gone; also recorded: almost entirely removed; also recorded: pull all HA out of solution
same,peptide removed from solution,[4]; 2.5 to 5 mg/mL peptide,~90%
same,Ellipticity ratio (222 nm/208 nm),[5],0.48
same,Ellipticity 208 nm,[5],−135
same,Ellipticity 222 nm,[5],−64.4
same,wavelength Minimum of CD profile,[5],223 nm
same,Ellipticity ratio (222 nm/208 nm),[5]; 20% TFE,0.72
same,Ellipticity 208 nm,[5]; 20% TFE,−175
same,Ellipticity 222 nm,[5]; 20% TFE,−126
same,wavelength Minimum of CD profile,[5]; 20% TFE,221 nm
same,"TEM characterization, Phosphate Buffered Saline (i)","[6]; PBS pH 7.4, 0.5% w/v, 30 minutes sonication, 24 hrs at 37° C.",fibers with many striations form larger fibers and the larger fibers tend to form a mesh network
same,"nanofiber formation in TEM, overall",[6]; both PBS and sodium cacodylate,consistent nanofibers; also recorded: predominantly form fibers with striations and furthermore form a mesh network
